Assay: High throughput cellobiose assay: fold improvement in cellobiase activity of CelA variants over a control enzyme (Tables 2A-2D, 3, 5, 6, 7)
Format: biochemical
Conditions: 3.3 g/l cellobiose, 50° C. and pH 6.5; compared to native CelA (SEQ ID NO: 4)
Procedure: β-glucosidase activity was also determined using a cellobiose assay, which used cellobiose as substrate. In a total volume of 100 μL, 25 μL clear media supernatant containing CelA enzyme was added to 10 g/L cellobiose (Fluka Cat. No. 22150, Sigma-Aldrich, Inc., St. Louis, Mo.) in 100 mM sodium phosphate buffer (pH 6-7) or sodium acetate buffer (pH 5-5.5). The reaction was incubated at 45-70° C. for an appropriate time (25 minutes to overnight depending on the enzyme concentration) while shaking. Glucose production was determined using an enzymatic glucose assay (K-GLUC, Megazyme, Ireland). 10 μl of each reaction was added to 190 μl GOPOD reagent (supplied as part of the K-GLUC assay kit). The reaction was incubated at 45° C. for 20 minutes and the absorbance of the solution was measured at 510 nm. The GOPOD reagent contains 50 mM Potassium phosphate buffer pH7.4, 0.011M p-hydroxybenzoic acid, 0.008% w/v sodium azide, glucose oxidase (>12,000 U/L), peroxidase (>650 U/L) and 80 mg/L 4-aminoantipyrine. The glucose oxidase enzyme in the reagent reacts with any glucose present in the sample and produces hydrogen peroxide which then reacts with the 4-aminoantipyrine to produce a quinoneimine dye in quantities proportionate with the amount of glucose present and can be measured spectrophotometrically at 510 nm. Detectable β-glucosidase activity was observed under high throughput screening conditions (i.e., pH 7, 50° C.).
Plasmid libraries containing variant CelA genes were transformed into B. megaterium and plated on Luria-Bertani (LB) agar plates containing 3 μg/mL tetracycline with a DM3 regeneration media overlay (400 mM sodium succinate dibasic, pH 7.3, 0.5% casamino acids, 0.5% yeast extract, 0.4% K2HPO4, 0.2% KH2PO4, 20 mM MgCl2, 0.5% glucose and 0.2% BSA). After incubation for at least 18 hours at 30° C., colonies were picked using a Q-bot® robotic colony picker (Genetix USA, Inc., Beaverton, Oreg.) into shallow, 96-well well microtiter plates containing 180 μL, LB and 10 μg/mL tetracycline. Cells were grown overnight at 37° C. with shaking at 200 rpm and 85% humidity. 10 μL of this culture was then transferred into 96-well microtiter plates (deep well) containing 390 μL A5-glucose-xylose medium and 10 μg/mL tetracycline as described in example 2. The plates were then incubated at 37° C. with shaking at 250 rpm and 85% humidity overnight (˜18-24 hours). The deep plates were centrifuged at 4000 rpm for 15 minutes and the clear media supernatant containing the secreted CelA enzyme was used for the high throughput pNPG or cellobiose assay of Example 5.
The CelA libraries were screened in high throughput using the cellobiose assay of Example 5 (Substrate: cellobiose; pH: 5-7; temperature: 45-72° C.; time: 2-24 hrs) for the identification of improved variants.
In shallow, 96-well microtiter plates 25 μL of media supernatant was added to 75 μL of […] cellobiose in 150 mM sodium acetate buffer pH 5-5.5 or 150 mM sodium phosphate buffer pH6-7. After sealing with aluminum/polypropylene laminate heat seal tape (Velocity 11 (Menlo Park, Calif.), Cat#06643-001), the plates were shaken at 45-65° C. for up to 24 hrs. The plates were centrifuged for 5 minutes at 4000 rpm. In shallow well clear microtiter plates, 10 μL of the reaction mixture was added to 190 μL of GOPOD reagent (as in example 5B) per well. The solutions were incubated at 45° C. for 1 hour and absorbance was measured at 510 nm for the identification of active CelA variants.
Improved CelA variants were identified from the high throughput screening of various CelA variant libraries as described in Example 7, using the cellobiose assay of Example 5 using 3.3 g/l cellobiose at temperatures from 50°-55° C. at a pH in the range of 5.3-6.5. Tables 2A, 2B, 2C, and 2D and Table 3 depict the improvement in activities of CelA variants encompassed by the invention. The assay conditions are indicated in each table. […]

Molecule	Fold improvement over wildtype CelA
42 (protein) STAIAQEGAAPAAILHPEKWPRPATQRLIDPAVEKRVDALLKQLSVEEKVGQVIQGDIGTITPEDLRKYPLGSILAGGNSGPNGDDRAPPKEWLDLADAFYRVSLEKRPGHTPIPVLFGIDAVHGHGNIGSATIFPHNIALGATHDPELLRRIGEVTAVEMAATGIDWTFAPALSVVRDDRWGRTYEGFSEDPEIVAAYSAAIVEGVQGKFGSKDFMAPGRAVASAKHFLADGGTDQGRDQGDARISEDELIRIHNAGYPPAIDAGVLTVMASFSSWQGIKHHGHKQLLTDVLKGQMGFNGFIVGDWNAHDQVPGCTKFNCPTSLIAGLDMYMAADSWKQLYENTLAQVKDGTIPMARLDDAVRRILRVKVLAGLFEKPAPKDRPGLPGLETLGSPEHRAVGREAVRKSLVLLKNDKGTLPLSPKARVLVAGDGADNIGKQSGGWTISWQGTGNRNDEFPGATSILGGIRDAVADAGGSVEFDVAGQYKTKPDVAIVVFGEEPYAEFQGDVETLEYQPDQKQDLALLKKLKDQGIPVVAVFLSGRPMWVNPELNASDAFVAAWLPGTEGGGVADVLFTDKAGKVQHDFAGKLSYSWPRTAAQTTVNRGDADYNPLFAYGYGLTYKDKSKVGTLPEESGVPAEARQNAGIYFRAGALRLPGRFL	+ (+ = 1.1 to 2.0 fold improvement over native CelA (SEQ ID NO: 4))
43 (protein) STAIAQEGAAPAAILHPEKWPRPATQRLIDPAVEKRVDALLKQLSVEEKVGQVIQGDIGTITPEDLRKYPLGSILAGGNSGPNGDDRAPPKEWLDLADAFYRVSLEKRPGHTPIPVLFGIDAVHGHGNIGSATIFPHNIALGATHDPELLRRIGEVTAVEMAATGIDWTFAPALSVVRDDRWGRTYEGFSEDPEIVAAYSAAIVEGVQGKFGSKDFMAPGRIVASAKHFLADGGTDQGRDQGDARISEDELIRIHNAGYPPAIDAGVLTVMASFSSWQGIKHHGHKQLLTDVLKGQMGFNGFIVGDWNAHDQVPGCTKFNCPTSLIAGLDMYMAADSWKQLYENTLAQVKDGTIPMARLDDAVRRILRVKVLAGLFEKPAPKDRPGLPGLETLGSPEHRAVGREAVRKSLVLLKNDKGTLPLSPKARVLVAGDGADNIGKQSGGWTISWQGTGNRNDEFPGATSILQGIRDAVADAGGSVEFDVAGQYKTKPDVAIVVFGEEPYAEFQGDVETLEYQPDQKQDLALLKKLKDQGIPVVAVFLSGRPMWVNPELNASDAFVAAWLPGTEGGGVADVLFTDKAGKVQHDFAGKLSYSWPRTAAQTTVNRGDADYNPLFAYGYGLTYKDKSKVGTLPEESGVPAEARQNAGIYFRAGALRLPGRFL	+ (+ = 1.1 to 2.0 fold improvement over native CelA (SEQ ID NO: 4))
44 (protein) STAIAQEGAAPAAILHPEKWPRPATQRLIDPAVEKRVDALLKQLSVEEKVGQVIQGDIGTITPEDLRKYPLGSILAGGNSGPNGDDRAPPKEWLDLADAFYRVSLEKRPGHTPIPVLFGIDAVHGHGNIGSATIFPHNIALGATHDPELLRRIGEVTAVEMAATGIDWTFAPALSVVRDDRWGRTYEGFSEDPEIVAAYSAAIVEGVQGKFGSKDFMAPGRIVASAKHFLADGGTDQGRDQGDARISEDELIRIHNAGYPPAIDAGVLTVMASFSSWQGIKHHGHKQLLTDVLKGQMGFNGFIVGDWNAHDQVPGCTKFNCPTSLIAGLDMYMAADSWKQLYENTLAQVKDGTIPMARLDDAVRRILRVKVLAGLFEKPAPKDRPGLPGLETLGSPEHRAVGREAVRKSLVLLKNDKGTLPLSPKARVLVAGDGADNIGKQSGGWTISWQGTGNRNDEFPGATSILGGIRDAVADAGGSVEYDVAGQYKTKPDVAIVVFGEEPYAEFQGDVETLEYQPDQKQDLALLKKLKDQGIPVVAVFLSGRPMWVNPELNASDAFVAAWLPGTEGGGVADVLFTDKAGKVQHDFAGKLSYSWPRTAAQTTVNRGDADYNPLFAYGYGLTYKDKSKVGTLPEESGVPAEARQNAGIYFRAGALRLPGRFL	+ (+ = 1.1 to 2.0 fold improvement over native CelA (SEQ ID NO: 4))

— patent publication US8357523B2, “Beta-glucosidase variant enzymes and related polynucleotides” (Codexis, Inc., priority 2009, dated 2013)
